According to PMC7919418 (Genes & Development, 2021):

Assay: SEC-MALS molecular weight / oligomeric state
Format: physicochemical

With “dual-TQT/V Panx peptides: Panx peptide residues 455–480 with both Ctp binding sites (TLYKNAATQTERRTATRDAGTQVRLE)” the “oligomeric state / stoichiometry” value was “two Ctp homodimers with two dual-TQT/V Panx peptides”.
